This series concerns the molecule itself. Put plainly: cross-linking; HeLa cells infected with C. trachomatis L2 (wild type or transformants induced at 16 hpi) treated with 0.25 mM DSS in HBSS pH 7.6 on ice at 4°C for at least 1 h; whole-cell lysates on 8% SDS-PAGE, immunoblot with anti-ClpC (endogenous) or anti-6×His (ectopic).

Where “and” joins values, the source holds several entries; their conditions need not be identical. Identical values can stand only once.

B1: endogenous ClpC of wild-type C. trachomatis serovar L2 (natural protein)
chain: not shown
notes: ClpC AAA+ ATPase of Chlamydia trachomatis serovar L2; monomer of the expected size 95 kDa; source: endogenous, wild-type Ctr L2 in infected HeLa cells, whole-cell lysate
As to B1, the stoichiometry N (as a rule, a count of units in the complex or per binding partner) is 2 and 6.

These data come from article PMC10128030, “Molecular Characterization of the ClpC AAA+ ATPase in the Biology of Chlamydia trachomatis” (mBio, 2023).
